Data as given in patent US6410248.

Target: Zif268 zinc fingers 1-3 (wild type) (UniProt P08046 SEQ:1-90)
Experiment: EMSA; 15 mM Hepes-NaOH pH 7.9, 50 mM KCl, 50 mM K glutamate, 50 mM K acetate, 5 mM MgCl2, 20 uM ZnSO4, no competitor DNA

B1: Zif268 site (dsDNA)
DNA 1: CCAGTAGCGGGGGCGTCCTCG
DNA 2: CGAGGACGCCCCCGCTACTGG
Kd: 0.01 nM
